Reference: article PMC9371921, “Strand annealing and motor driven activities of SMARCAL1 and ZRANB3 are stimulated by RAD51 and the paralog complex” (Nucleic Acids Research, 2022)

Target: T1, RAD51B;RAD51C;RAD51D;XRCC2 (Homo sapiens;Homo sapiens;Homo …, UniProt O15315;O43502;O75771;O43543 1-384;1-376;1-328;1-280, |||)
T1 sequence 1: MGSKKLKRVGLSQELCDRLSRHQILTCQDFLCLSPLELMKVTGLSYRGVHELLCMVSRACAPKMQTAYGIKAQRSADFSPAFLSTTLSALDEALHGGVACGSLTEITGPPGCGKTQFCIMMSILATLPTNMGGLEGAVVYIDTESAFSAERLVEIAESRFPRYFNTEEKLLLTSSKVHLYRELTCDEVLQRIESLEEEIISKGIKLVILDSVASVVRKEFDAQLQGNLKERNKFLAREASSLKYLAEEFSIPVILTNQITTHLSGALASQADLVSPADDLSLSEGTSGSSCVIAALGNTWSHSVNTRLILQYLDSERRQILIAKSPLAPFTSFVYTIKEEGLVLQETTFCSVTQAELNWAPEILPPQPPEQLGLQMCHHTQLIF
T1 sequence 2: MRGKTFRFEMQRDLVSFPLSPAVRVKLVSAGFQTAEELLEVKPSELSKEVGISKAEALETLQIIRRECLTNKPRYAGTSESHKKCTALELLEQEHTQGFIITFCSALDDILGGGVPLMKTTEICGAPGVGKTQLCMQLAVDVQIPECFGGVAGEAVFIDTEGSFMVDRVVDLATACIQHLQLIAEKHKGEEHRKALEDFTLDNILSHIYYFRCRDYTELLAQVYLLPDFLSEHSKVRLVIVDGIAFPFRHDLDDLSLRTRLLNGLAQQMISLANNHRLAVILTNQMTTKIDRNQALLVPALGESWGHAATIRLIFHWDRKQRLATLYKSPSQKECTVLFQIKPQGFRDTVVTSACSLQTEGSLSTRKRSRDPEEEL
T1 sequence 3: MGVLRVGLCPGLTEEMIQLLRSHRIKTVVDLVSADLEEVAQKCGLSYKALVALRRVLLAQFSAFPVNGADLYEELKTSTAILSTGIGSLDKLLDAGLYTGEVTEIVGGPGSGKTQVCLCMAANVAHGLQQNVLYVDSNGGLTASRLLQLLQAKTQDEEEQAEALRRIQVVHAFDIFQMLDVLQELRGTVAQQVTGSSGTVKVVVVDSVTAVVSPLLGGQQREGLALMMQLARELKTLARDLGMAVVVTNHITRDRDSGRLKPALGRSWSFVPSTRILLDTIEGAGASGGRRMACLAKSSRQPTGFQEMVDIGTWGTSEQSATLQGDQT
T1 sequence 4: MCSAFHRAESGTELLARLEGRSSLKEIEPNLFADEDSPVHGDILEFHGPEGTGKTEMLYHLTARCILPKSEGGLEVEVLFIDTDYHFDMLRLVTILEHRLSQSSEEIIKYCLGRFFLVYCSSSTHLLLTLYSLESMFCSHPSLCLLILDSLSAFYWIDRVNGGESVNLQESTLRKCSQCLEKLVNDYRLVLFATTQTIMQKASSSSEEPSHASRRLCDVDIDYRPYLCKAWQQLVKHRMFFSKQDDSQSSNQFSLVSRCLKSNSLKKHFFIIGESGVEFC
Experiment: EMSA; 1 mM ATP, 1 mM Mg acetate; EMSA: 1 nM DNA, 20 mM Tris-acetate pH 7.5, 1 mM DTT, 1 mM magnesium acetate, 0.1 mg/ml BSA, 1 mM ATP, 30 min at 37 C; 6% PAGE in 1x TBE at 4 C
Settings: protein: recombinant;recombinant;recombinant;recombinant; tags: FLAG;10xHis;none;none; copies: 1;1;1;1; label: 5'-32P

B1: 70-mer ssDNA (PC210) (ssDNA)
DNA: GTAAGTGCCGCGGTGCGGGTGCCAGGGCGTGCCCTTGGGCTCCCCGGGCGCGTACTCCACCTCATGCATC
binding result: binds
